Ends that are not written are not given here. * marks the point of attachment. Biotin = O=C1N[C@H]2[C@H](CS[C@H]2CCCCC(=O)*)N1
Experiments:
Assay in all cases: A/G assays
[1] = biological target: T1, GST-LIM protein PDZ domain fusion protein (Human, UniProt Q96HC4 2-85)
T1 construct: also called Human LIM protein; not shown: glutathione S-transferase encoded by vector pGEX-3X (Pharmacia)
T1 sequence: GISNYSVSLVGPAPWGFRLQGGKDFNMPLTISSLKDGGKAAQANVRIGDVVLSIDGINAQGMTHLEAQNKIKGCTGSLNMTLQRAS

[2] = biological target: T2, GST-PDZK1 fusion protein (PDZ domains 2-4) (Homo sapiens, UniProt Q5T2W1 134-457)
T2 construct: not shown: glutathione S-transferase encoded by vector pGEX-3X (Pharmacia)
T2 sequence: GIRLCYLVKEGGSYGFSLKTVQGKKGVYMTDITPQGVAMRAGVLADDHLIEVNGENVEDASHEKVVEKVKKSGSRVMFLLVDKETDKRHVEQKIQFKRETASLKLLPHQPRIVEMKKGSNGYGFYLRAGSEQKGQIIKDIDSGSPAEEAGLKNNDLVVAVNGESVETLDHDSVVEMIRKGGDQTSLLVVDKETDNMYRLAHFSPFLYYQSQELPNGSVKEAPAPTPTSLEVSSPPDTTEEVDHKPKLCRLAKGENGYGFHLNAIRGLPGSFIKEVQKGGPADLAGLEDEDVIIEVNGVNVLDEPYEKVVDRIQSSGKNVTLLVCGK

[3] = biological target: T3, GST-DLG5 (p-dlg) PDZ domain fusion protein (Human, UniProt Q8TDM6 1343-1583)
T3 construct: also called Human discs large protein p-dlg; not shown: glutathione S-transferase encoded by vector pGEX-3X (Pharmacia)
T3 sequence: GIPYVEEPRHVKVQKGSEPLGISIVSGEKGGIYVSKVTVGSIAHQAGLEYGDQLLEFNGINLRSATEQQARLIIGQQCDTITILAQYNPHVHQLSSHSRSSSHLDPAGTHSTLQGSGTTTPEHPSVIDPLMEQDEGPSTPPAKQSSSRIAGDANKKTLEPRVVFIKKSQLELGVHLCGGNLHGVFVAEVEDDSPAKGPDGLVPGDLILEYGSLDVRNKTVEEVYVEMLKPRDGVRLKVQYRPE

[4] = biological target: T4, GST-TAX-IP40 PDZ domain fusion protein (human, UniProt Q6B4M5 150-252 (rat entry))
T4 construct: also called TAX40; not shown: glutathione S-transferase encoded by vector pGEX-3X (Pharmacia)
T4 sequence: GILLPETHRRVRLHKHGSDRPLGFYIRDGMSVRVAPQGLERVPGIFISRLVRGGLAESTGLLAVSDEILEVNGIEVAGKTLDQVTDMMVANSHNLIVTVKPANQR

[5] = biological target: T5, GST-DVL1 PDZ domain fusion protein (human, UniProt O14640 247-339)
T5 construct: also called human dishevelled segment polarity protein homolog; not shown: glutathione S-transferase encoded by vector pGEX-3X (Pharmacia)
T5 sequence: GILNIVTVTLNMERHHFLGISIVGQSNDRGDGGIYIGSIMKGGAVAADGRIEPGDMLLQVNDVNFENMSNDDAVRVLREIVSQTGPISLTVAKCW

[6] = biological target: T6, GST-KIAA0303 PDZ domain fusion protein (Homo sapiens (Human), UniProt O15021 1138-1228)
T6 construct: also called K303; not shown: glutathione S-transferase encoded by vector pGEX-3X (Pharmacia)
T6 sequence: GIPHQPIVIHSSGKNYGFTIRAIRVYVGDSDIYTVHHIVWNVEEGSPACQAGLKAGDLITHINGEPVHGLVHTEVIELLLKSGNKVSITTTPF

[7] = biological target: T7, KIAA0807 (PDZ domain)-GST fusion protein (human, UniProt Q6P0Q8 1104-1192)
T7 construct: also called K807; KIAA807; not shown: glutathione S-transferase encoded by vector pGEX-3X (Pharmacia)
T7 sequence: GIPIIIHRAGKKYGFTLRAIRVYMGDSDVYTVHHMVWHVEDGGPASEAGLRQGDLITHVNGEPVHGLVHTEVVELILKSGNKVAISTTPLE

[8] = biological target: T8, TAX-IP2L PDZ-GST fusion protein (Homo sapiens (Human), UniProt Q8TF64 107-197)
T8 construct: Order of GST and PDZ part and limits not seen in the excerpts
T8 sequence: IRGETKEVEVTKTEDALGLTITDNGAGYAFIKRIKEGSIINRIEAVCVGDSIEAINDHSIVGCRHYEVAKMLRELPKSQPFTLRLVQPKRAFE

[9] = biological target: T9, TAX-IP33 PDZ-GST fusion protein (Homo sapiens (Human), UniProt O14910 103-193)
T9 construct: Order of GST and PDZ part and limits not seen in the excerpts
T9 sequence: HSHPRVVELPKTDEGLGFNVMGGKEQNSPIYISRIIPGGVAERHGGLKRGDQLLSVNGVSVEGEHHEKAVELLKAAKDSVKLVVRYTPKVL

[10] = biological target: T10, MINT3 PDZ-GST fusion protein
T10 construct: Order of GST and PDZ part and limits not seen in the excerpts
T10 chain: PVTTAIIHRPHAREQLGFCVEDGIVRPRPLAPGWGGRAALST

[11] = biological target: T11, K559 PDZ-GST fusion protein (Homo sapiens (Human), UniProt Q9Y6V0 4489-4593)
T11 construct: Order of GST and PDZ part and limits not seen in the excerpts
T11 sequence: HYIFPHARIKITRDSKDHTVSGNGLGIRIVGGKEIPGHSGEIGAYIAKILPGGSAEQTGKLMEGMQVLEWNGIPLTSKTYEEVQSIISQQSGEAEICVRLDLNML

[12] = biological target: T12, NSP PDZ-GST fusion protein (Homo sapiens (Human), UniProt Q92743 370-466)
T12 construct: The label NSP is not explained in the excerpts

[13] = biological target: T13, GEF PDZ-GST fusion protein (Homo sapiens (Human), UniProt Q8TEU7 293-400)
T13 construct: The label GEF is not explained in the excerpts
T13 sequence: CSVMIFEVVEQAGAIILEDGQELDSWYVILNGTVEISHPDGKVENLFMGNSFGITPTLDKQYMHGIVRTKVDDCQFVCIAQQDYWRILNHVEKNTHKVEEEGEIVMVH

[14] = biological target: T14, NOS1 PDZ-GST fusion protein (Homo sapiens (Human), UniProt P29475 11-100)
T14 construct: Order of GST and PDZ part and limits not seen in the excerpts

[15] = biological target: T15, GST-TIAM1 PDZ domain fusion protein (Homo sapiens (Human), UniProt Q13009 845-931)
T15 construct: also called TLAM1; T-lymphoma invasion and metastasis inducing protein 1; not shown: glutathione S-transferase encoded by vector pGEX-3X (Pharmacia)

Measured: binding result

T12 sequence (Q92743 other isoform, or with tags, fused parts or gaps limits assumed): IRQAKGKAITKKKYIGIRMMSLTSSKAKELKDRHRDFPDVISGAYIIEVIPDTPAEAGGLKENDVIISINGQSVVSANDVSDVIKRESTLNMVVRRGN
T15 sequence (Q13009 other isoform, or with tags, fused parts or gaps): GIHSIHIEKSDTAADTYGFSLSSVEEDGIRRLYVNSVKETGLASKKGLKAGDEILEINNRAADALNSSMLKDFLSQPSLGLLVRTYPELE
T14 sequence (P29475 11-100 limits assumed): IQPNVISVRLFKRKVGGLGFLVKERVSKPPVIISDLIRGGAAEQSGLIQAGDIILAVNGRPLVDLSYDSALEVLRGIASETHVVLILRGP

B1: CD138 C-terminal peptide AA18L, biotinylated (peptide)
peptide: Biotin-PKQANGGAYQKPTKQEEFYA
notes: also called CD138 (syndecan-1); CD138 (syndecan)
not listed: [15]
no binding: all other assays above

Biotin-STNHSIGSTQSTPCSTSSMA (also called CD105 (endoglin)) [CD105 C-terminal peptide AA16L, biotinylated]
not listed: [1]
no binding: all other assays above

Biotin-QATSENGHSARQHVVADTEL [CD34 C-terminal peptide AA7L, biotinylated]
not listed: [7]
no binding: all other assays above

Biotin-KDITSDSENSNFRNEIQSLV (also called CD95 (Apo-1/Fas); AAI3L) [CD95 (Fas) C-terminal peptide AA13L, biotinylated]
no binding: all assays above

B2: CDw137 (4-1BB ILA) C-terminal peptide AA21L (peptide)
peptide: Biotin-QEEDGCSCRFPEEEEGGCEL
modifications: cysteine pairing not given here
notes: Marked (S), sticky peptide with high background; also called CDw137 (4-1BB ILA) (S)
not listed: [8] | [9] | [11] | [12] | [13]
no binding: all other assays above

Biotin-PYGTAMEKAQLKPPATSDA (also called CD49E (alpha-4)) [CD49E C-terminal peptide AA11L, biotinylated]
no binding: all assays above

Biotin-TREDIYVNYPTFSRRPKTRV [DNAM-1 C-terminal peptide AA22L, biotinylated]
not listed: [1] | [14]
no binding: all other assays above

Biotin-VTSPNKHLGLVTPHKTELV [CD83 C-terminal peptide AA47L, biotinylated]
no binding: all assays above

B3: V-gated Ca2+ channel C-terminal peptide AA46L (peptide)
peptide: Biotin-SSGGRARHSYHHPDQDHWC
notes: Marked (S), sticky peptide with high background; also called V-gated Ca2+ channel (S)
not listed: [8] | [9] | [12] | [13]
no binding: all other assays above

Source: US20050037969A1 (ARBOR VITA, published 2005)
